Data set [1] has as its target T1, New Delhi metallo-β-lactamase-1 (NDM-1) (Klebsiella pneumoniae, UniProt C7C422).
T1 construct: gene blaNDM-1
Nature of the data set: steady-state hydrolysis kinetics with purified NDM-1 (Km). It is filed as biochemical.

Data set [2] has as its target T1, New Delhi metallo-β-lactamase-1 (NDM-1). Nature of the data set: biochemical.
Data set [3] deals with C[C@@H](O)[C@H]1C(=O)N2C(C(=O)O)=C(S[C@@H]3CN[C@H](C(=O)N(C)C)C3)[C@H](C)[C@H]12. Nature of the data set: steady-state hydrolysis kinetics with purified NDM-1 (Km). It is filed as biochemical, Klebsiella pneumoniae. The following applies: Zn2+ (two Zn ions).
Data set [4] concerns C[C@@H](O)[C@H]1C(=O)N2C(C(=O)O)=C(SCCN=CN)C[C@H]12. The description is as above. The following applies: Zn2+ (two Zn ions). It counts as biochemical, Klebsiella pneumoniae.
The subject of data set [5] is CO/N=C(\C(=O)N[C@@H]1C(=O)N2C(C(=O)O)=C(COC(C)=O)CS[C@H]12)c1csc(N)n1. The data set is described as above. The following applies: Zn2+ (two Zn ions). It is filed as biochemical, Klebsiella pneumoniae.
Data set [6] deals with CC1(C)S[C@@H]2[C@H](NC(=O)[C@H](N)c3ccccc3)C(=O)N2[C@H]1C(=O)O. The description is as above. Particulars: Zn2+ (two Zn ions). It is filed as biochemical, Klebsiella pneumoniae.

Consider three molecules from PMC8878330 (Molecules, 2022).

In general, Km refers to the substrate concentration at which the rate is half of its maximum. In general, IC50 refers to the point on the concentration scale where inhibition reaches its midpoint. A lower IC50 goes with greater potency. The term Vmax denotes the top rate of the reaction or transport when substrate is in excess. For orientation: kcat means the maximal rate divided by the concentration of active sites. As usually defined, the kcat/Km is the turnover number divided by the Michaelis constant.

T1 sequence (C7C422 29-270 limits assumed): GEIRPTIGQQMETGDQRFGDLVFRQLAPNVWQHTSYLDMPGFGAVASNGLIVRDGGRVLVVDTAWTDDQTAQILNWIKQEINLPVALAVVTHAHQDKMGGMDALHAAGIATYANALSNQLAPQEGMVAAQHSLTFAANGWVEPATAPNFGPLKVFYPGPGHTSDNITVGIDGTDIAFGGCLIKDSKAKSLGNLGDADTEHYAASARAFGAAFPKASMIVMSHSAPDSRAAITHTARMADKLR

Regarding `O=C(Cc1cccs1)N[C@@H]1C(=O)N2C(C(=O)O)=C(/C=C/c3ccc([N+](=O)[O-])cc3[N+](=O)[O-])CS[C@H]12` [nitrocefin], the Km in data set [1] stood at 23.2 ± 1.7 µM.

Regarding `O=P(O)(O)C(O)(Cc1cccnc1)P(=O)(O)O` [risedronate], in data set [2], the IC50 was found to be 24.6 µM.

Regarding “New Delhi metallo-β-lactamase-1 (NDM-1) (Klebsiella pneumoniae)”, in data set [3], the Km came to 52.8 ± 3.4 µM, the Vmax turned out to be 38.6 µM/min, the kcat amounted to 322 ± 11.7 s⁻¹ and the kcat/Km was found to be 6.1e+06 ± 450000 M⁻¹ s⁻¹. Besides, in data set [4], the Km came to 75.9 ± 2.9 µM, the Vmax is 91 µM/min, the kcat was 758 ± 18.6 s⁻¹ and the kcat/Km was determined as 9.99e+06 ± 450000 M⁻¹ s⁻¹. For the same molecule, in data set [5], the Km came to 54.8 ± 3.7 µM, the Vmax came to 45.1 µM/min, the kcat was determined as 375 ± 17.5 s⁻¹ and the kcat/Km was found to be 6.85e+06 ± 560000 M⁻¹ s⁻¹. In addition, in data set [6], the Km stood at 96.5 ± 3.1 µM, the Vmax was 44.9 µM/min, the kcat is 375 ± 14.3 s⁻¹ and the kcat/Km is 3.88e+06 ± 190000 M⁻¹ s⁻¹.
